According to PMC3836723, “Translation Initiation Factors eIF3 and HCR1 Control Translation Termination and Stop Codon Read-Through in Yeast Cells” (PLoS Genetics, 2013):
Values belong to the binder of their own block, whether it stands above or below them.

Legend:
Myc-tagged RLI1 = molecular target: T1, Myc-tagged RLI1 (yeast, UniProt Q03195 1-608); assay: co-IP; WCE of yeast YDH353 (chromosomal Myc-tagged RLI1), 500 µg total protein, 1 µl mouse anti-Myc-Tag IgG, with or without antibody; lysis in buffer A (30 mM HEPES pH 8.8, 20 mM KAc, 3 mM magnesium acetate, 1 mM DTT, 1% Nonidet P-40); Western analysis; settings: partners not purified
T1 construct: chromosomal Myc-tagged allele; also called ABCE1/RLI1; source: chromosomal Myc-tagged allele, yeast strain YDH353, in whole cell extract

TAP-tagged HCR1 = molecular target: T2, TAP-tagged HCR1 (yeast, UniProt Q05775 1-265); assay: pull-down; TAP-tagged chromosomal alleles; cells treated with 1% HCHO before harvest; WCE (1 mg protein) in buffer B (50 mM Tris-HCl pH 7.6, 150 mM NaCl, 0.05% Tween 20) with or without 0.1 mg/ml RNase A; IgG Sepharose 6 Fast Flow beads, 2 h at 4°C; eluted by boiling in SDS buffer or by TEV protease; untagged wt strain as control; Western analysis; settings: partners not purified
T2 construct: eIF3j/HCR1, yeast; chromosomal TAP-tagged allele; also called eIF3j/HCR1; source: chromosomal TAP-tagged allele, yeast strain H553, cells treated with 1% HCHO, in whole cell extract
T2 sequence (Q05775 whole entry): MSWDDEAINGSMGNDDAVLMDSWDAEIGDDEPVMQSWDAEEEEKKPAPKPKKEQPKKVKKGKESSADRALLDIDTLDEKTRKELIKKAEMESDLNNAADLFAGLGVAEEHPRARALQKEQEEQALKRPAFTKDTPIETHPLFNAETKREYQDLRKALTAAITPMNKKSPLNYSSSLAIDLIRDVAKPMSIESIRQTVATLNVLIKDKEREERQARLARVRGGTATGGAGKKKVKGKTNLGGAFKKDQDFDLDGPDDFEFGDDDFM

percent of input co-precipitated (Myc-tagged RLI1): ~13 % of the input
percent of input co-purified (TAP-tagged HCR1): 9 ± 0.2%
B1: eukaryotic release factor 3 (eRF3) (natural protein, yeast (endogenous in yeast cells), UniProt P05453 1-685, looked up)
chain: MSDSNQGNNQQNYQQYSQNGNQQQGNNRYQGYQAYNAQAQPAGGYYQNYQGYSGYQQGGYQQYNPDAGYQQQYNPQGGYQQYNPQGGYQQQFNPQGGRGNYKNFNYNNNLQGYQAGFQPQSQGMSLNDFQKQQKQAAPKPKKTLKLVSSSGIKLANATKKVGTKPAESDKKEEEKSAETKEPTKEPTKVEEPVKKEEKPVQTEEKTEEKSELPKVEDLKISESTHNTNNANVTSADALIKEQEEEVDDEVVNDMFGGKDHVSLIFMGHVDAGKSTMGGNLLYLTGSVDKRTIEKYEREAKDAGRQGWYLSWVMDTNKEERNDGKTIEVGKAYFETEKRRYTILDAPGHKMYVSEMIGGASQADVGVLVISARKGEYETGFERGGQTREHALLAKTQGVNKMVVVVNKMDDPTVNWSKERYDQCVSNVSNFLRAIGYNIKTDVVFMPVSGYSGANLKDHVDPKECPWYTGPTLLEYLDTMNHVDRHINAPFMLPIAAKMKDLGTIVEGKIESGHIKKGQSTLLMPNKTAVEIQNIYNETENEVDMAMCGEQVKLRIKGVEEEDISPGFVLTSPKNPIKSVTKFVAQIAIVELKSIIAAGFSCVMHVHTAIEEVHIVKLLHKLEKGTNRKSKKPPAFAKKGMKVIAVLETEAPVCVETYQDYPQLGRFTLRDQGTTIAIGKIVKIAE
notes: eRF3 (SUP35), yeast; also called SUP35; source: endogenous, yeast whole cell extract

percent of input co-precipitated (Myc-tagged RLI1): ~22 % of the input
percent of input co-purified (TAP-tagged HCR1): ~2%
B2: eukaryotic release factor 1 (eRF1) (natural protein, yeast (endogenous in yeast cells), UniProt P12385 1-437, looked up)
chain: MDNEVEKNIEIWKVKKLVQSLEKARGNGTSMISLVIPPKGQIPLYQKMLTDEYGTASNIKSRVNRLSVLSAITSTQQKLKLYNTLPKNGLVLYCGDIITEDGKEKKVTFDIEPYKPINTSLYLCDNKFHTEVLSELLQADDKFGFIVMDGQGTLFGSVSGNTRTVLHKFTVDLPKKHGRGGQSALRFARLREEKRHNYVRKVAEVAVQNFITNDKVNVKGLILAGSADFKTDLAKSELFDPRLACKVISIVDVSYGGENGFNQAIELSAEALANVKYVQEKKLLEAYFDEISQDTGKFCYGIDDTLKALDLGAVEKLIVFENLETIRYTFKDAEDNEVIKFAEPEAKDKSFAIDKATGQEMDVVSEEPLIEWLAANYKNFGATLEFITDKSSEGAQFVTGFGGIGAMLRYKVNFEQLVDESEDEYYDEDEGSDYDFI
notes: eRF1 (SUP45), yeast; also called SUP45; source: endogenous, yeast whole cell extract

percent of input co-purified (TAP-tagged HCR1): ~58%
B3: ABCE1/RLI1 (natural protein, yeast (endogenous in yeast cells), UniProt Q03195 1-608, looked up)
chain: MSDKNSRIAIVSADKCKPKKCRQECKRSCPVVKTGKLCIEVTPTSKIAFISEILCIGCGICVKKCPFDAIQIINLPTNLEAHVTHRYSANSFKLHRLPTPRPGQVLGLVGTNGIGKSTALKILAGKQKPNLGRFDDPPEWQEIIKYFRGSELQNYFTKMLEDDIKAIIKPQYVDNIPRAIKGPVQKVGELLKLRMEKSPEDVKRYIKILQLENVLKRDIEKLSGGELQRFAIGMSCVQEADVYMFDEPSSYLDVKQRLNAAQIIRSLLAPTKYVICVEHDLSVLDYLSDFVCIIYGVPSVYGVVTLPASVREGINIFLDGHIPAENLRFRTEALQFRIADATEDLQNDSASRAFSYPSLKKTQGDFVLNVEEGEFSDSEILVMMGENGTGKTTLIKLLAGALKPDEGQDIPKLNVSMKPQKIAPKFPGTVRQLFFKKIRGQFLNPQFQTDVVKPLRIDDIIDQEVQHLSGGELQRVAIVLALGIPADIYLIDEPSAYLDSEQRIICSKVIRRFILHNKKTAFIVEHDFIMATYLADKVIVFEGIPSKNAHARAPESLLTGCNRFLKNLNVTFRRDPNSFRPRINKLDSQMDKEQKSSGNYFFLDNTGI
notes: source: endogenous, yeast whole cell extract
